T1: GIP(1-42) (Homo sapiens, UniProt P09681)
T1 sequence (P09681 52-93): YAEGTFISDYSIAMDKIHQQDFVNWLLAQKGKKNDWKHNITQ

T2: GIP(3-42) (Homo sapiens, UniProt P09681)
T2 sequence (P09681 54-93): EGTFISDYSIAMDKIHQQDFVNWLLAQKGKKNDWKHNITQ

B1: monoclonal antibody prepared in Production Example 1: anti-active GIP monoclonal antibody produced by hybridoma 9B9H5-B9 line; H-chain variable region SEQ ID NO: 2, L-chain variable region SEQ ID NO: … (antibody, listed as Mus musculus, V domains shown)
VH: QVQLQQPGAELVKPGASVKLSCKASGYTFTSFWMHWVIQRPGQGLEWIGEMNPSDGRTHFNEKFKTKATLTIDTSSNTAYMELNSLTSEDSAVYYCARRMEDWGQGTLVTVSA
VL: DIKMTQSPSSMYASLGERVTITCKASQDINSYLGWFQQKPGKSPKTLIYGANRLVDGVPSRFSGSGSGQDYSLTISSLEYDDMGIYYCLQYDEFPLTFGAGTKLELKR

Columns and labels:
[1] = system: db/db mice; assay: Y-maze (short-term memory) test, Example 1; format: in vivo, mouse; details: db/db mice 30-week-old, i.p. twice a week, 20 days after start (after seven administrations); GIP 5 nmol/kg, anti-GIP antibody 1 mg/kg; FIG. 2
Protocol: (§1) Six-week-old leptin receptor deficient C57BLKS/J male mice (db/db mice, Oriental Yeast Co., Ltd.) were transferred (room temperature: 23° C., humidity: 55±10%, light period: 7:00 to 19:00) and were fed with food and water ad libitum. The food was CE-2 (CLEA Japan, Inc.), and the mice were acclimated for 2 weeks under the above-mentioned environment and were then used for testing.
(§2) Mouse-derived GIP (manufactured by AnaSpec, Inc.) was dissolved in physiological saline at a concentration of 500 nM to give a GIP solution. […]
(§3) The test was performed 10 days before the start of the administration and 20 days after the start of the administration (after seven administrations) to measure the short-term memory and learning ability (working memory). Each mouse was placed at an end of a plastic Y-maze (manufactured by Noldus Information Technology) in which the arms each have a length of 40 cm and a height of 12 cm and form an angle of 120° with each other, and the behavior of the mouse was video-recorded for 10 minutes to measure the order and the number of entries into the arms. The score of short-term memory and learning ability was evaluated by the spontaneous alternation behavior change rate (see the following calculation formula). […]

[2] = system: db/db mice; assay: Novel object recognition (long-term memory) test, Example 1; format: in vivo, mouse; details: db/db mice 30-week-old, i.p. twice a week, 15 days after start (after six administrations); GIP 5 nmol/kg, anti-GIP antibody 1 mg/kg; FIG. 3
Protocol: as §1, §2
The test was performed 5 days before the start of the administration and 15 days after the start of the administration (after six administrations) to measure the long-term memory and learning ability (reference memory). […] On the following day, two identical objects (rubber objects wrapped with blue rubber tape: columns each having 4 cm diameter and 3.5 cm height) were placed in the box (at a position with a space of 10 cm in length and 10 cm in width from the wall), and the behavior of the mouse was video-recorded for 5 minutes to measure the number of recognitions (the number of times the mouse approached each object within 1 cm) (training trial, on the 14th day from the start of the administration). […] The score of long-term memory and learning ability was evaluated by the recognition rate of the novel object in the retention trial (see the following calculation formula). […]

[3] = system: C57BL/6J mice (107-week-old); assay: Y-maze (short-term memory) test in aged mice, Example 3; format: in vivo, mouse; details: aged C57BL/6J mice (107-week-old), 0.5 mg/kg i.p. once a week, 6 times; compared to non-administration and control group; FIG. 5
Protocol: (§4) Four-week-old C57BL/6J male mice (CLEA Japan, Inc.) were transferred (room temperature: 23° C., humidity: 55±10%, light period: 7:00 to 19:00) and were fed with food (D12450K, Research Diets, Inc.) and water ad libitum for 111 weeks.
(§5) The anti-active GIP antibody produced in Production Example 1 was dissolved in physiological saline at a concentration of 0.05 mg/mL to give an anti-GIP antibody solution.
(§6) Physiological saline (control group) or the anti-GIP antibody solution (0.5 mg/kg body weight) (anti-GIP antibody administration group) was intraperitoneally administered to C57BL/6J mice (107-week-old) once a week (9:00 to 10:00 a.m.), 6 times in total.
as §3, with “1 week” for “10 days”, “1 week” for “20 days”, “two administrations), 3 weeks after the start (after four administrations), and 5 weeks after the start (after six” for “seven”, “arms.” for “arms. The score of short-term memory and learning ability was evaluated by the spontaneous alternation behavior change rate (see the following calculation formula).”

[4] = target: T3, PEGylated N-terminus 13 amino acids of inactive GIP (GIP(3-15)) (Homo sapiens, UniProt P09681); assay: Hybridoma screening/cloning ELISA with immobilized antigen (2); format: binding; details: hybridoma culture supernatant, immobilized PEGylated GIP(3-15)
T3 construct: made in house; host or cells: peptide synthesis (no expression host)
Protocol: (§7) Polyethylene glycol was added to N-terminus 15 amino acids of active GIP (GIP(1-15)) (PEGylation (polyethylene glycolation)), and keyhole limpet hemocyanin (KLH) was then chemically bonded thereto to produce KLH-linked PEGylated GIP (1-15) as an immunogen.

[5] = target: T1, GIP(1-42); assay: Sandwich ELISA, reactivity with active GIP; format: binding; details: biotinylated antibody 1 μg/mL as detection antibody, GIP 8.2 to 2000 pg/mL, FIG. 1
Protocol: (§8) The reactivity between the monoclonal antibody prepared in Production Example 1 and active GIP was confirmed by ELISA. The amino group of the anti-active GIP monoclonal antibody was biotinylated with NH2 group biotinylation kit (manufactured by Dojindo Laboratories). ELISA was performed using the produced biotinylated anti-active GIP monoclonal antibody at 1 μg/mL instead of a detection antibody, GIP detection antibody (biotinylated anti-total GIP monoclonal antibody), included in Human (total) GIP ELISA kit (manufactured by EMD Millipore Corporation). A […] dilution series of GIP(1-42) or GIP(3-42) was prepared in 6 steps (8.2 to 2000 pg/mL) with a 2000 pg/mL solution as the highest concentration. By using an anti-total GIP monoclonal antibody (included in Human GIP (total) ELISA kit manufactured by EMD Millipore Corporation) as a capture antibody, the biotinylated anti-active GIP monoclonal antibody as a detection antibody, and a peroxidase-streptavidin conjugate for detection, sandwich ELISA was conducted to prepare a calibration curve with GIP concentration on the X-axis and 450 nm-590 nm absorbance on the Y-axis (FIG. 1).

[6] = system: C57BL/6J mice (107-week-old); assay: Novel object recognition (long-term memory) test in aged mice, Example 3; format: in vivo, mouse; details: aged C57BL/6J mice (107-week-old), 0.5 mg/kg i.p. once a week, 5 weeks after start; compared to control group; FIG. 6
Protocol: as §4, §5, §6
The test was performed 5 weeks after the start of the administration to measure the long-term memory and learning ability (reference memory). […] On the following day, two identical objects (rubber objects wrapped with blue rubber tape: columns each having 4 cm diameter and 3.5 cm height) were placed in the box (at a position with a space of 10 cm in length and 10 cm in width from the wall), and the behavior of the mouse was video-recorded for 5 minutes to measure the number of recognitions (the number of times the mouse approached each object within 1 cm) (training trial). […]

[7] = target: T4, PEGylated N-terminus 15 amino acids of active GIP (GIP(1-15)) (Homo sapiens, UniProt P09681); assay: Hybridoma screening/cloning ELISA with immobilized antigen (1); format: binding; details: hybridoma culture supernatant, immobilized PEGylated GIP(1-15)
T4 construct: PEGylated N-terminus 15 amino acids of active GIP (GIP(1-15)); made in house; host or cells: peptide synthesis (no expression host)
Protocol: as §7

[8] = target: T2, GIP(3-42); assay: Sandwich ELISA, cross-reactivity with inactive GIP; format: binding; details: biotinylated antibody 1 μg/mL as detection antibody, GIP 8.2 to 2000 pg/mL, FIG. 1
Protocol: as §8

| Molecule | spontaneous alternation behavior change rate (short-term memory and learning ability) [1] | novel object recognition rate (long-term memory and learning ability) [2] | spontaneous alternation behavior change rate (short-term memory and learning ability) [3] | ELISA reaction with antigen (2) for measurement [4] | reactivity with GIP(1-42) (450 nm-590 nm absorbance) [5] | novel object recognition rate (long-term memory and learning ability) [6] | ELISA reaction with antigen (1) for measurement [7] | cross-reactivity with GIP(3-42) (450 nm-590 nm absorbance) [8] |
| --- | --- | --- | --- | --- | --- | --- | --- | --- |
| GIP: Mouse-derived GIP (manufactured by AnaSpec, Inc.) dissolved in physiological saline at 500 nM (YAEGTFISDYSIAMDKIRQQDFVNWLLAQRGKKSDWKHNITQ; Gastric inhibitory polypeptide; UniProt P48756 44-85, looked up) | a decrease in the spontaneous alternation behavior change rate (short-term memory and learning ability) was observed | a decrease in the novel object recognition rate (long-term memory and learning ability) was observed |  |  |  |  |  |  |
| B1 |  |  | an increase in the spontaneous alternation behavior change rate (short-term memory and learning ability) was observed | negative for the antigen (2) | capable of specifically detecting GIP(1-42) | an increase in the novel object recognition rate (long-term memory and learning ability) was observed | positive for the antigen (1) | does not show cross-reactivity with GIP(3-42) |
